Source: patent US20190382481A1 (Janssen / Centocor, published 2019)
Positions count from the first letter of the chain named.

B1: C3CB8 (bispecific antibody, human IgG4 S228P, lambda, F234A L235A)
heavy 1: not shown
light 1: SYELTQPPSVSVSPGQTASITCSGHKLGDKYACWYQQKPGQSPVVVIYKDSKRPSGIPERFSGSNFGNTATLTISGTQAMDEADYYCQAWDSSTVVFGGGTKLTVLGQPKAAPSVTLFPPSSEELQANKATLVCLISDFYPGAVTVAWKADSSPVKAGVETTTPSKQSNNKYAASSYLSLTPEQWKSHRSYSCQVTHEGSTVEKTVAPTECS
heavy 2: EVQLVESGGGLVQPGGSLRLSCAASGFTFNTYAMNWVRQAPGKGLEWVARIRSKYNNYATYYAASVKGRFTISRDDSKNSLYLQMNSLKTEDTAVYYCARHGNFGNSYVSWFAYWGQGTLVTVSSASTKGPSVFPLAPCSRSTSESTAALGCLVKDYFPEPVTVSWNSGALTSGVHTFPAVLQSSGLYSLSSVVTVPSSSLGTKTYTCNVDHKPSNTKVDKRVESKYGPPCPPCPAPEAAGGPSVFLFPPKPKDTLMISRTPEVTCVVVDVSQEDPEVQFNWYVDGVEVHNAKTKPREEQFNSTYRVVSVLTVLHQDWLNGKEYKCKVSNKGLPSSIEKTISKAKGQPREPQVYTLPPSQEEMTKNQVSLTCLVKGFYPSDIAVEWESNGQPENNYKTTPPVLDSDGSFLLYSKLTVDKSRWQEGNVFSCSVMHEALHNHYTQKSLSLSLGK
light 2: QTVVTQEPSLTVSPGGTVTLTCRSSTGAVTTSNYANWVQQKPGQAPRGLIGGTNKRAPGTPARFSGSLLGGKAALTLSGVQPEDEAEYYCALWYSNLWVFGGGTKLTVLGQPKAAPSVTLFPPSSEELQANKATLVCLISDFYPGAVTVAWKADSSPVKAGVETTTPSKQSNNKYAASSYLSLTPEQWKSHRSYSCQVTHEGSTVEKTVAPTECS
B2: C3CB87 (bispecific antibody, human IgG4 S228P, kappa, lambda, F234A L235A)
heavy 1: not shown
light 1: not shown
heavy 2: B1 heavy 2
light 2: B1 light 2
B3: C3CB89 (bispecific antibody, human IgG4 S228P, kappa, lambda, F234A L235A)
heavy 1: not shown
light 1: not shown
heavy 2: B1 heavy 2
light 2: B1 light 2
B4: C3CB91 (bispecific antibody, human IgG4 S228P, lambda, F234A L235A)
heavy 1: not shown
light 1: SYELTQPPSVSVSPGQTASITCSGDNLGNEHVCWYHQKPGQSPVLVIYQNNKRPSGIPERFSGSNSGNTATLSISGTQATDEADYYCQAWDSTTAVFGGGTKLTVLGQPKAAPSVTLFPPSSEELQANKATLVCLISDFYPGAVTVAWKADSSPVKAGVETTTPSKQSNNKYAASSYLSLTPEQWKSHRSYSCQVTHEGSTVEKTVAPTECS
heavy 2: B1 heavy 2
light 2: B1 light 2
B5: C3CB5 (bispecific antibody, human IgG4 S228P, lambda, F234A L235A)
heavy 1: not shown
light 1: B1 light 1 with H25D, A32V, Y48H, K49Q, S51R
heavy 2: B1 heavy 2
light 2: B1 light 2
B6: C3CB14 (bispecific antibody, human IgG4 S228P, lambda, F234A L235A)
heavy 1: not shown
light 1: B1 light 1 with H25D, D29N, C33S, V45L, K49Q, S51T, F61V, F66S, Y86H
heavy 2: B1 heavy 2
light 2: B1 light 2
B7: C3CB90 (bispecific antibody, human IgG4 S228P, lambda, F234A L235A)
heavy 1: not shown
light 1: SYELTQPPSVSVSPGQTASITCSGDELGDMYACWYQQKPGQSPLVVIYQDSKRPSGIPERFSGSNSGNTATLTISGTQAMDEAAYYCQTWDTRIAVFGGGTNLTVLGQPKAAPSVTLFPPSSEELQANKATLVCLISDFYPGAVTVAWKADSSPVKAGVETTTPSKQSNNKYAASSYLSLTPEQWKSHRSYSCQVTHEGSTVEKTVAPTECS
heavy 2: B1 heavy 2
light 2: B1 light 2
B8: C3CB16 (bispecific antibody, human IgG4 S228P, lambda, F234A L235A)
heavy 1: not shown
light 1: not shown
heavy 2: B1 heavy 2
light 2: B1 light 2
B9: C3CB10 (bispecific antibody, human IgG4 S228P, lambda, F234A L235A)
heavy 1: not shown
light 1: B1 light 1 with H25D, K49Q, S51R
heavy 2: B1 heavy 2
light 2: B1 light 2
B10: C33B909 (antibody, V domains shown)
VH: EVQLVESGGGLVQPGRSLRLSCVASGFTFDDYAIHWVRQAPGKGLEWVSGLSWNGGNIGYADSVKGRFTISRDNAKNSLYLQMNSLKTEDTAFYYCTKDTPYGDYFDYWGQGTLVTVSS
VL: DIQMTQSPSSVWASVGDRVTITCRASQGISSWLAWYQQQPGKAPNLLIYRSSSLQSGVPSRFSGSGSGTDFTLTISSLQPEDFATYYCQQDNSFPYTFGQGTKLEIKR
notes: OMNIMouse mAb; HC C33H249, LC C33L115 (same IDs as C33B901); the campaign was cloned into both IgG1 and IgG4 PAA
B11: C33B910 (antibody, V domains shown)
VH: B10 VH with V23A, A24G, M83L, T97A, T100S
VL: B10 VL with V11E, Q39K, N45K, R50G, S51A, L54W
notes: OMNIMouse mAb; HC C33H250, LC C33L116 (same IDs as C33B902)
B12: C33B915 (antibody, V domains shown)
VH: EVQLVESGGGLVQPGRSLRLSCAASGFTFDDYAMHWVRQVPGEGLEWVSGISWNGGDMVYADSVKGRFTISRDNAKNSLYLQMNSLRPEDTALYYCVKDMPYFDFLTGSDYYYYGMDVWGQGTTVTVSS
VL: SYELTQPPSVSVSPGQTASITCSGDNLGNEHVCWYHQKPGQSPVLVIYQNNKRPSGIPERFSGSNSGNTATLSISGTQATDEADYYCQAWDSTTAVFGGGTKLTVLG
notes: OMNIMouse mAb; HC C33H255, LC C33L121 (same IDs as C33B907); also called C33F553
B13: C33B913 (antibody, V domains shown)
VH: EVQLLESGGGLVQPGGSLKLSCTASGFTFRSYAMSWVRQAPGKGLEWVSAINGYGDGRYYADSVKGRFTISRDNSKNTLYLQMNSLRAEDTAVYSCAKDQGFGELFFDYWGQGTLVTVSS
VL: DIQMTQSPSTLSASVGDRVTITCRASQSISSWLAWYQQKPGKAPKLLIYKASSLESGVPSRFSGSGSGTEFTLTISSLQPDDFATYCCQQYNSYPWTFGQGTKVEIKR
notes: OMNIMouse mAb; HC C33H253, LC C33L119 (same IDs as C33B905); also called C33F551
B14: C33B914 (antibody, V domains shown)
VH: QVQLVESGGGVVQPGRSLRLSCAASGFTFSYYGMHWVRQAPDKGLEWVAVIWFDGNNKYYADSVKGRFTISRDNSKNTLYLQMNSLRAEDTAVYYCARDRELLFDYWGQGTLVTVSS
VL: SYELTQPPSVSVSPGQTASITCSGDELGDMYACWYQQKPGQSPLVVIYQDSKRPSGIPERFSGSNSGNTATLTISGTQAMDEAAYYCQTWDTRIAVFGGGTNLTVLG
notes: OMNIMouse mAb; HC C33H254, LC C33L120 (same IDs as C33B906); also called C33F552
B15: C3CB11 (bispecific antibody, human IgG4 S228P, lambda, F234A L235A)
heavy 1: not shown
light 1: B1 light 1 with H25D, V45L, K49Q, S51G, T69K, S92R, S93N
heavy 2: B1 heavy 2
light 2: B1 light 2

molecular target: T1, human CD33 (human, UniProt P20138 18-364); test: cell-based or functional assay
T1 sequence (P20138 18-364 limits assumed): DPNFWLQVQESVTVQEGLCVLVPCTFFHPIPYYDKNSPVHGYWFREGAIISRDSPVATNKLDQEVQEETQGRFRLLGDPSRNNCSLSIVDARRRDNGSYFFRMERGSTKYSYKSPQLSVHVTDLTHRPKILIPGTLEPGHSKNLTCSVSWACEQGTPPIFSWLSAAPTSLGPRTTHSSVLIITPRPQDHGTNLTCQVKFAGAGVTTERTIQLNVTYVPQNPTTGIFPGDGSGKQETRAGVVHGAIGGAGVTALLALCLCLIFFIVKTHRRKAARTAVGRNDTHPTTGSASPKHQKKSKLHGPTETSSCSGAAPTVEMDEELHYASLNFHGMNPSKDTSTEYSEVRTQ

Binder	Cytotoxicity EC50 (nM), T-cell mediated cytotoxicity of MOLM-13 [nM]
B1	0.513
B2	0.067
B3	0.41
B4	0.35
B5	1.26
B6	0.538
B7	10.6
B8	0.667
B9	0.473

molecular target: T2, Cyno CD33 full length (cynomolgus monkey); test: flow cytometry on HEK293F cells expressing cyno CD33
T2 construct: Stably expressed on HEK293F cells by lentiviral transduction; also called Cyno CD33 (on HEK293F cells)
Method: (§1) The purified antibodies were assessed for binding to stably transfected HEK293F cells expressing human CD33 or cyno CD33 (generation described above) along with the parental HEK293F as negative control. Cells were harvested from tissue culture flasks using non-enzymatic dissociation buffer (Thermo Scientific). The flasks were rinsed twice with PBS and dissociation buffer was added to the flask, and the flask was incubated for 10 minutes at 37° C. until the cells became non-adherent. The cells were centrifuged at 300 g for 5 minutes and resuspended at 1.0×10⁶ cells/ml in staining buffer (Becton Dickinson; Franklin Lakes, N.J.). 50,000 cells/well of each cell type was plated in 50 μl of staining buffer in round bottom plates (Becton Dickinson). 50 μl of 2× concentration test mAb or isotype control was added at 3 dilutions and zero (120 nM, 12 nM, and 1.2 nM and 0 nM), and the resultant solution was incubated 30 min at 4° C. 100 μl staining buffer was added to all wells of each plate, the plates were spun at 300 g for 5 min, the buffer was removed, 200 μl staining buffer was added to all wells of each plate, the plates were spun at 300 g for 5 min, and the buffer was removed. 50 μl of 2 μg/ml of Goat-anti-human Fc AF647 secondary antibody (Jackson Immunoresearch; West Grove, Pa.) was added to all wells of the plates, and the plates were incubated for 30 min at 4° C. 100 μl staining buffer was added to all wells of the plates, the plates were spun at 300 g for 5 min, and the buffer was removed. 200 μl running buffer (running buffer is Staining buffer, 1 mM EDTA, 0.1% Pluronic Acid) was added to all wells of the plates, the plates were spun at 300 g for 5 min, and the buffer was removed. 30 ul running buffer containing Sytox Green live/dead dye (ThermoFisher) was added to all wells with cells and the plates were read on an iQue IntelliCyt flow cytometer. Cells were gated on forward vs. side scatter to eliminate debris, then on singlets and then on live cells which excluded the Sytox stain. Antibody binding was assessed by the mean fluorescence intensity in the AF647 channel. […]

T2 sequence (chain, as listed by the source limits assumed): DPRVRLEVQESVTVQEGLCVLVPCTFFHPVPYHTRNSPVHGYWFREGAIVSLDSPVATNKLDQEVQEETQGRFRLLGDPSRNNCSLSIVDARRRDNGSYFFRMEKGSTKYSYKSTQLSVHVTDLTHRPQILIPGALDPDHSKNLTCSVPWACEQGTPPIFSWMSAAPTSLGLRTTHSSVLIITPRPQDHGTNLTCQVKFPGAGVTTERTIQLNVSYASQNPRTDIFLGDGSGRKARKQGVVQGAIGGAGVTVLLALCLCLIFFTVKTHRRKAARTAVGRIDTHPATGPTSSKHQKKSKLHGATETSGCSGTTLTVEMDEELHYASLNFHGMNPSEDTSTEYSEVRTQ

Binder	mean fluorescence intensity at 0.6 nM mAb [MFI]	mean fluorescence intensity at 6 nM mAb [MFI]	mean fluorescence intensity at 60 nM mAb [MFI]
B10	116	135	180
B11	117	135	202
B12	36200	35700	37500
B13	35200	36900	40700
B14	22100	33400	45000

molecular target: T3, Human CD33 full length (human, UniProt P20138 18-364); test: flow cytometry on HEK293F cells expressing human CD33
T3 construct: Stably expressed on HEK293F cells by lentiviral transduction; also called Human CD33 (on HEK293F cells)
Method: as §1

T3 sequence (P20138 18-364 limits assumed): as the sequence (P20138 18-364 limits assumed) above

Binder	mean fluorescence intensity at 0.6 nM mAb [MFI]	mean fluorescence intensity at 6 nM mAb [MFI]	mean fluorescence intensity at 60 nM mAb [MFI]
B10	154	170	176
B11	151	183	214
B12	138000	363000	390000
B13	205000	409000	519000
B14	153000	315000	304000

molecular target: T1, human CD33; test: cell-based or functional assay; remark: another data set of the same source

Binder	Primary AML Cell Killing EC50 (nM), ex vivo AML patient whole blood [nM]
B15	3.96
